# Reference: PMC6318328, “Structural insights into trans-histone regulation of H3K4 methylation by unique histone H4 binding of MLL3/4” (Nature Communications, 2019)
# Experiments:
# [1] = test system: recombinant nucleosomes (histone H3K4); assay: In vitro histone methyltransferase (HMT) assay of MLL3/MLL4 constructs; assay type: biochemical; conditions: recombinant nucleosomes 0.5 μg, 2.5 μCi [3H]-SAM, 30 °C, 16 h, autoradiography (Fig. 3b, c)
# Experimental: Mammalian expression plasmids encoding different fusions of MLL3 PHD and SET domains were subcloned into the pFLAG-CMV2 vector (Sigma-Aldrich, E7033) and were transiently expressed in HEK 293T cells (ATCC® ACS-4500™) by using Lipofectamine 2000 (ThermoFisher Scientific, 11668027) according to manufacturer’s protocol. Two days after transfection, cells were harvested and then lysed by mammalian lysis buffer (20 mM Tris-HCl, 137 mM NaCl, 1.5 mM MgCl2, 1 mM EDTA, 10% glycerol, 1% Triton X-100, 0.2 mM PMSF, 1 μg mL^−1 aprotinin, 2.5 μg mL^−1 leupeptin, and 1 μg mL^−1 pepstatin at pH 8.0). FLAG immunoprecipitation (FLAG IP) was performed in a similar way as described previously. In brief, total cell lysates were incubated with anti-FLAG M2 Affinity Gel (Sigma-Aldrich, A2220) in 4 °C for 5 h and were extensively washed with BC500 (20 mM Tris-HCl, 500 mM KCl, 1.5 mM MgCl2, 0.2 mM EDTA, 10% glycerol, 0.2 mM PMSF at pH 8.0). […]
# HMT assay was performed according to a previously described method with minor modifications. […] The signals for HMT activity were detected by autoradiography. The input of the MLL3/4 proteins and nucleosomes were detected by mouse monoclonal anti-FLAG M2 (Sigma-Aldrich, F3165, 1:1000) and rabbit polyclonal anti-H3 antibody (Abcam, ab1791, 1:1000), respectively. […]
# MLL4_(ePHD6)1475–1564 = target: T1, MLL4_(ePHD6)1475–1564 (Homo sapiens, UniProt O14686); assay: ITC binding of histone peptides to MLL4 ePHD6 (1475–1564); parameters: key to ITC titration, Kd / Kd: NB: no detectable binding; conditions: for Kd / binding to ePHD6 of MLL4 (in words): ITC; for Kd: 20 mM Tris pH 7.5, 150 mM NaCl, 25 °C, protein 50–100 μM in cell, peptide 1–2 mM in syringe, single measurement, error from fitting curve; for ITC titration, Kd: Supplementary Fig. 4 and 7, MLL4_ePHD6, pH 7.5, 25 °C
# T1 construct: MLL4_ePHD6, residues 1475–1564, and residues 1495–1564; GST (N, cleaved yes); His (N, cleaved yes); made in house; host or cells: E. coli BL21 (DE3) Codon plus RIL
# T1 sequence (O14686 1475-1564): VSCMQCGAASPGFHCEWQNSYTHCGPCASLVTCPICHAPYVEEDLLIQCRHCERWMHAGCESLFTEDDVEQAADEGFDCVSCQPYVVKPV
# From the text: (§1) The DNA fragments of MLL3 and MLL4 PHD domains (MLL3_ePHD6, residues 1055–1144 and residues 1075–1144; MLL3_PHD6, residues 1085–1144; MLL3_PHD5, residues 1009–1055; MLL3_PHD5-6, residues 1008–1144; MLL3_ePHD3, residues 436–525; MLL4_ePHD6, residues 1475–1564, and residues 1495–1564; MLL4_PHD6 residues 1505–1564 and MLL4_PHD5 residues 1429–1475) were subcloned into a modified pET28GST-LIC vector by T4 ligase-independent method (Clontech, 638920) to generate N-terminal GST, His-tagged fusion protein. The recombinant protein was overexpressed in E coli BL21 (DE3) Codon plus RIL (Stratagene) at 15 °C by induction with 0.25 mM IPTG at an OD600 of 0.8 and purified by affinity chromatography on Ni-nitrilotriacetate resin (Qiagen, 30250) followed by thrombin protease treatment to remove the tag. The protein was further purified by HiTrap Q HP column (GE Healthcare, 17115401) by using buffers with 20 mM Tris, pH 8.0, 1 mM DTT, 50 mM NaCl (low salt buffer) or 1 M NaCl (high salt buffer), and Superdex75 gel-filtration column (GE Healthcare, 28989333) by using a buffer containing 20 mM Tris, pH 7.5, 150 mM NaCl, 50 μM ZnCl2, and 1 mM DTT. For crystallization experiments, purified protein was concentrated to 5 mg mL^−1 in the same buffer as gel-filtration by using Amicon Ultra-15 Centrifugal Filter Units (Millipore Corporation, UFC901024).
# (§2) For the ITC measurement, the concentrated proteins were diluted into 20 mM Tris, pH 7.5, 150 mM NaCl; the lyophilized peptides (Peptide 2.0 Inc.) were dissolved in the same buffer, and the pH value was adjusted by adding NaOH. Peptides concentrations were estimated from the mass. […] The protein with a concentration of 50–100 μM was placed in the cell chamber, and the peptides with a concentration of 1–2 mM in syringe was injected in 25 (19 for iTC-200) successive injections with a spacing of 180 s (150 s for iTC-200) and a reference power of 13 μcal s^−1 (6 μcal s^−1 for iTC-200). Control experiments were performed under identical conditions to determine the heat signals that arise from injection of the peptides into the buffer.
# MLL3_(ePHD6)1055–1144 = target: T2, MLL3_(ePHD6)1055–1144 (Homo sapiens, UniProt Q8NEZ4); assay: ITC binding of histone peptides to MLL3 ePHD6 (1055–1144); parameters: key to ITC titration, Kd / Kd: NB: no detectable binding; conditions: for Kd / binding to ePHD6 of MLL3 (in words): ITC; for Kd: 20 mM Tris pH 7.5, 150 mM NaCl, 25 °C, protein 50–100 μM in cell, peptide 1–2 mM in syringe, single measurement, error from fitting curve; for ITC titration, Kd: Supplementary Fig. 4 and 7, MLL3_ePHD6, pH 7.5, 25 °C
# T2 construct: MLL3_ePHD6, residues 1055–1144 and residues 1075–1144; GST (N, cleaved yes); His (N, cleaved yes); made in house; host or cells: E. coli BL21 (DE3) Codon plus RIL
# T2 sequence (Q8NEZ4 1055-1144): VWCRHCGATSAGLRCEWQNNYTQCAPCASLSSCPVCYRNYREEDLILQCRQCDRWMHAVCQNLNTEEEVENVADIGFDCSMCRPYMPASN
# From the text: as §1, §2
# [2] = test system: fourth (PHD4), fifth (PHD5), and sixth (PHD6) PHD domains of MLL4; conditions: peptide pull-down; histone H4 fragment containing the first 23 amino acids; ref [29]; cited from earlier work
# From the text: (§3) Both MLL3 and MLL4 are multi-domain proteins, containing not only the catalytic SET domain but also a few other domains, including two clusters of PHD domains (Fig. 1a). […] The interaction between histone H4_1–23 and PHD6 do ...
# PHD6 domain of MLL4 = conditions: ITC; ref [29]; cited from earlier work
# From the text: as §3
# [3] = Gel filtration, oligomeric state in solution; assay type: physicochemical; conditions: Superdex200 10/300 GL, 20 mM Tris pH 7.5, 150 mM NaCl, 50 μM ZnCl2, 1 mM DTT
# Experimental: Supplementary Fig. 3 Superimposition of gel-filtration curves of PHD6 and ePHD6 domains of MLL3 and MLL4. Gel filtration chromatography of MLL3 ePHD6 (red), PHD6 (pink), MLL4 ePHD6 (brown), PHD6 (green) and protein molecular weight standards (blue, Bio-Rad). Samples were loaded to the Superdex200 10/300 GL (GE Healthcare) column in the buffer containing 20 mM Tris, pH 7.5, 150 mM NaCl, 50 μM ZnCl2,and1mMDTT. […]
substance,measurement,setting,value
1M: W1109A single point mutation of MLL3,nucleosomal methyltransferase activity,[1],reduced the enzyme activity
2M: W1109A/E1120A double point mutation of MLL3,nucleosomal methyltransferase activity,[1],reduced the enzyme activity
"H3_1–20: histone H3 peptide, residues 1–20",Kd,MLL4_(ePHD6)1475–1564,NB
same,Kd,MLL3_(ePHD6)1055–1144,NB
"H4R3me0: histone H4 fragment containing the first 23 amino acids, unmethylated","recognition by PHD4, PHD5 and PHD6 of MLL4",[2],able to recognize
"H4R3me2a: histone H4 fragment containing the first 23 amino acids, asymmetrically dimethylated on histone H4R3","recognition by PHD4, PHD5 and PHD6 of MLL4",[2],able to recognize
H4_1–12: histone H4 peptide covering the first 12 residues,binding to ePHD6 of MLL4 (in words),MLL4_(ePHD6)1475–1564,neither MLL3 nor MLL4 displayed detectable binding
same,Kd,MLL4_(ePHD6)1475–1564,NB
same,binding to ePHD6 of MLL3 (in words),MLL3_(ePHD6)1055–1144,neither MLL3 nor MLL4 displayed detectable binding
same,Kd,MLL3_(ePHD6)1055–1144,NB
"H4_1–12R3me2a: histone H4 peptide covering the first 12 residues, asymmetrically methylated (H4R3me2a)",Kd,MLL4_(ePHD6)1475–1564,NB
same,Kd,MLL3_(ePHD6)1055–1144,NB
H4_1–23: histone H4 fragment containing the first 23 amino acids,interaction with PHD6 domain,PHD6 domain of MLL4,confirmed
H41–24H18A: histone H4-derived mutant peptide,"ITC titration, Kd",MLL4_(ePHD6)1475–1564,NB
same,"ITC titration, Kd",MLL3_(ePHD6)1055–1144,NB
"H411–21H18A: histone H4-derived mutant peptide (GKGGAKRARKV; UniProt P62805 12-22, looked up, variant H18A)","ITC titration, Kd",MLL4_(ePHD6)1475–1564,NB
same,"ITC titration, Kd",MLL3_(ePHD6)1055–1144,NB
"H411–21K16A: histone H4-derived mutant peptide (GKGGAARHRKV; UniProt P62805 12-22, looked up, variant K16A)",binding to ePHD6 of MLL4 (in words),MLL4_(ePHD6)1475–1564,weakened the binding significantly
same,"ITC titration, Kd",MLL4_(ePHD6)1475–1564,Weak binding
same,binding to ePHD6 of MLL3 (in words),MLL3_(ePHD6)1055–1144,weakened the binding significantly
same,"ITC titration, Kd",MLL3_(ePHD6)1055–1144,Weak binding
"H411–21R17A: histone H4-derived mutant peptide (GKGGAKAHRKV; UniProt P62805 12-22, looked up, variant R17A)","ITC titration, Kd",MLL4_(ePHD6)1475–1564,NB
same,"ITC titration, Kd",MLL3_(ePHD6)1055–1144,NB
"H411–21R19A: histone H4-derived mutant peptide (GKGGAKRHAKV; UniProt P62805 12-22, looked up, variant R19A)",binding to ePHD6 of MLL4 (in words),MLL4_(ePHD6)1475–1564,weakened the binding significantly
same,"ITC titration, Kd",MLL4_(ePHD6)1475–1564,Weak binding
same,binding to ePHD6 of MLL3 (in words),MLL3_(ePHD6)1055–1144,weakened the binding significantly
same,"ITC titration, Kd",MLL3_(ePHD6)1055–1144,Weak binding
"MLL3 PHD6: PHD6 domain of MLL3 (SSCPVCYRNYREEDLILQCRQCDRWMHAVCQNLNTEEEVENVADIGFDCSMCRPYMPASN; left off: GST, N-terminal, cleaved | His tag, N-terminal, cleaved)",oligomeric state in solution,[3],monomer in solution
"MLL4 PHD6: PHD6 domain of MLL4 (VTCPICHAPYVEEDLLIQCRHCERWMHAGCESLFTEDDVEQAADEGFDCVSCQPYVVKPV; left off: GST, N-terminal, cleaved | His tag, N-terminal, cleaved)",oligomeric state in solution,[3],dimer in solution
